Biological target: SHG-labeled wildtype NiV G ectodomain (Nipah virus) (UniProt Q9IH62)
Assay: second harmonic generation (SHG)

ephrinB2-229 (10881-HCCH, SinoBiological Inc.) (domain or fragment)
ΔSHG: -15.9%

From publication PMC5626764
